assay: soluble on expression in E. coli; label from the status in PepcDB or PDB records

Question: For “MSLQWECWPSLPCWRCFAASGRITLSIKRFTQNSRRHDMKITKINAIPLSYRLPEGKTVTMGVGSTIKRDAIIIRVETSEGITGYGEAHPGRSPGAITSLIHNTIAPMLIGMKATDCVGAWQRVHRMQLSSHGLGAGAALAISGIDMALWDIRGKAANMPLYELLGGSKRRIPAYAGGIALGYQPKESLAEEAQEYIARGYKALKLRIGDAARVDIERVRHVRKVLGDEVDILTDANTAYTMADARRVLPVLAEIQAGWLEEPFACNDFASYREVAKITPLVPIAAGENHYTRFEFGQMLDAGAVQVWQPDLSKCGGITEGIRIAAMASAYRIPINAHSSATGLNHAATIHFLAATENAGYFEACVSKFNPFRDMFGTSFEIGADGCVEPPDAPGLGIEVDESIFEKYPAVDGPGYVVKFEGHHHHHH”, which “soluble on expression in E. coli” value is on record?
Answer: soluble

Question: With “MRTQNDLDRRLRSFGGRDGQMTTLSVRRLPVENGISGWEAISKRSKPVRRLEGDVTADWLIIGAGFAGLSAARRLTQLHPGETIVVLDASEVGKGTSGRNSGFMIDVPHNLASSEYSSGAIDATRLEMEQNRSAIAFAAAAAEDYGMSRQTFDPAGKINAAATRRGMTLNQNFAASLKNAGEKHTLLDAAQMRALTGSDYYLGGLYTPGAVLIQPADYIREFAAGLSPKVDIFENSPVTALRRENRAWKATTPSGSVTAPKVILGVNGHVDDFGHFRGRLIHIFAYASMTAPFAARDYGSRVSGQDKWALLPADAMGATVRKITSDGQSRIAIRTRYTYETTLDLTKHQLSKMVRAHRRSLDDRFPGLGGIPFEYSWSGRICLSLNHVPAFGEIEEGLFSACCENGLGTVKSTLAGMMAAELATGTTSRHLEQYMDHPAPSRLPPEPFAWLGINSVIRLQELRAGREGLEHHHHHH” as the sequence, how does the “soluble on expression in E. coli” value read?
Answer: not soluble

Question: With “MGSDKIHHHHHHMIDVTFDPTLANTLAQSLKLTAIALPLDLQIGDLTRLTDAKNSYWGLKARYTKSGGASAEFAAVTTSQQRLQQVLATGATLRVWTSVNPADQLGWGWLCSQLVQAQFMGVIQRIQIPLSGPVMTEMGPVFMQNSTIGELDEPALEHDLATAKVVTAADWVAFSYHWQACYEDNAALRLILGGRVVGVPQDFLDPLVRTCYRPEQSTAQTLGRILDNYPIGMPNWWWQYRIDQIAKASVR” as the sequence, how does the “soluble on expression in E. coli” value read?
Answer: not soluble

Question: Which “soluble on expression in E. coli” value does the source give for “MGSDKIHHHHHHMSASSQSPKGDGLLQTISVKILKRVGKEEVAYVYLGETSRGNLVEFVESIQPPVPREKKWVLIVSTLAGCPVGCLMCDAGGFYRGKLSADEIFEQIDFLVKSRYPNGRIPSEKFKIQFARMGEPALNEAVLDVLKELPARYEAPGLMPSISTVAPCGTDSFFEDLLKIKEKHYRGKFQLQFSIHSTDEKERDQIIPVKKWSLEKISEFGKRFVKENDRKITLNFAVAQEYSLDPKVIIRVFDPEKFLVKITPVNPTYRSKENNLNSDVDVERKELLKHRNFIEELKKAGFEVILSIGELEENKIGSNCGQYVQRHLMSERKIVDGYQYV” here?
Answer: not soluble

Question: For “MAHHHHHHMTALERYAFKVDYCDPQANLVRQYLLLYFAEDSTIEMHDLKTKRVFLKRCAYPSLTPRELFIGATVGVFSRSLKLVDYGDEVTRRHFSGSEAEFVVFIQEGGLCHMGSIIDRMHTWELRITNIRLVDLPDSLCRDLGVSRRCVAILFKGSNAIEKVGGLSTEFPNMTVVVAEPSDVNSVRGAAFGPGGTTAVMKNCSVCVIKPHAIMSGYQGAIIQRLIDEGFHITALGMYSLTVADAEDFLEVYNGVVPEYQRLVEQMSSGPCWAVQVCAENSVSALRAICGPHDPDVCHVLFPHTIRSKYGVDRTRNGVHCTDLEEDAPLESEFFFSLLQNA”, which “soluble on expression in E. coli” value is on record?
Answer: not soluble

Question: With “MSDSIQERYLVGYALAAKKQHSFIQPSLIEHSRQRGIDLVKLDPTKSLLEQGKLDCIIHKLYDVYWKENLHEFREKCPGVPVIDLPEAIERLHNRVSMLEVITQLRFPVSDSERFGVPEQVVVMDSSVLSGGGALGELKFPVIAKPLDADGSAKSHKMFLIYDQEGMKILKAPIVLQEFVNHGGVIFKVYVVGDHVKCVKRRSLPDISEEKIGTSKGSLPFSQISNLTAQEDKNIEYGEDRSLEKVEMPPLSFLTDLAKAMRESMGLNLFNFDVIRDAKDANRYLIIDINYFPGYAKMPSYEPVLTEFFWDMVTKKNHV” as the sequence, how does the “soluble on expression in E. coli” value read?
Answer: soluble

Question: For “LNNLEELKRDIIEQFKEKNALDEGIVVMASGGKDSSTAIALAKDLGLNIEYLIHFYHRWSWDVSKKMVEKLSKKFDIPVIFYNITDELLKRTKGAKGSSICRICKNIMKDKAVDISKEKGIRIIMTGDSALEKVSGAVMNYLRDVYGEVVYNKMELTPVPQKYSKGKDKEVLFFRPLIRLACEDVLKLMDYYNIEIERAHE”, which “soluble on expression in E. coli” value is on record?
Answer: not soluble

Question: For “MYQDLIRNELNEAAETLANFLKDDANIHAIQRAAVLLADSFKAGGKVLSCGNGGSHCDAMHFAEELTGRYRENRPGYPAIAISDVSHISCVGNDFGFNDIFSRYVEAVGREGDVLLGISTSGNSANVIKAIAAAREKGMKVITLTGKDGGKMAGTADIEIRVPHFGYADRIQEIHIKVIHILIQLIEKEMVK”, which “soluble on expression in E. coli” value is on record?
Answer: soluble

Question: For “MGSDKIHHHHHHQEQVKVVDRTIRIGDAMEHPVPMKLSAFVDSITYVPLETTKSYVKDKMLISYVKPYWGVYPGSLFDKEGRFVANIGALGQGPGEESGFGYSIFYDRDRNIFYTQGDKIIQFDAKGKFTGKEIRIAYRDKGIEGKIASGLKNVYAMVKSGKDYLIVNYPDSIFWMDAELNVRHGDRIISDSLFLTPSGVGGGMPYTFSDYKDTTIFYNCFTDAIYTVTDTGLQKRWTLEFKGSKADNRCFLNDYKKLYLDEYVKIVSSSKGNVETMKEKAQNSELAQLIDNKKWVYHVSEGERYLFLWWLNLKAFSSAWRGYNESHIALYDKRTGEAVAIAGDGLIDDIDNGMTFFPRYGICNNAMVSSVWPFELKEYIQEKKAKGEAVSDRLIALADSLDDEQNPILVIAHLKK”, which “soluble on expression in E. coli” value is on record?
Answer: not soluble

Question: For “MGSDKIHHHHHHMLKRIATSLLDIAYDEQGNADGWPVVLLHGFPYDIHAYDAVTPRLTSQGARVITPYLRGYGPTRFLAPTTLRSGQQAALGADLLALLDALQIGQAVLGGYDWGGRAACIVAALYPSRARGLVSVNGYNIQNIAAASQPADPEKEYRMWYQYYLHGERGRAGLTENRREFCRLLWSLWSPTWHFGDDTYARSAAAFDNPDFVDVVVHSYRHRFGLVDGDPQFDDIERRLSAMPPITVPAITLEGDADGVSPPGGRQANSQRFTGRHQNRVVPNAGHNLPQEAPGAFADAVLDINAWAARRSCACGD”, which “soluble on expression in E. coli” value is on record?
Answer: not soluble

Question: Which “soluble on expression in E. coli” value does the source give for “MAPIRRSSRLAERYDAIESKKRSLKRLEEQIKAEEEQFSDKMKQLEDEIKIKEQVITMFKRKTVRREWMRNSRQATTNINIAQIESLKLQLEEGEKDIAEAEKQAEPTTPQQEAELSETFKQMVRDRMKVKDVDEKLLQQYMKKENVEFEWRSCFICTMEYSRTDKNLHPIILNCGHNLCRSCINKLTGNGIVKCPFDRLDTRVRVTGLPRNLALINL” here?
Answer: not soluble

Question: For “MGSDKIHHHHHHDSFKTKSGKELTITFIKHGSLMLTYDNHSIQVDPVSEYADYTTFPKADIILITHEHGDHLDPKAIQAVEKSDTEIIANENSQKKLGKGKVLKNGDTDTSISYMKIEAVPAYNTTPGRDKYHPRHRDNGYILTFDGLRVYIAGDTEDIPEMKDLKDIDIAFLPVNQPYTMTVSQAAKAARMFSPKILYPYHYGDTKIGELKDALKDSGIDVRIRELQ”, which “soluble on expression in E. coli” value is on record?
Answer: not soluble

Question: For “MAHHHHHHMRFLSSSAVSPSPIRPSTGGASGKERLHHELPILHWRAGGGGEVGGGQHDDADSSDEYNEAHLCCDDWASSPAEPAAAAATFQTRQSDTPDGLHVDSDDDDNADDDGGEDTAGQTWIEEALRRAEAKCAVLRLELTFATERAVAAEANARARERECAELHALASRMQAQLAAAQMTAEWATANTRADAEVQVAACTASLDDIAASAFSSPNSPNRLGTTSLSMRKGTALADGTVWRRRHDIVAQELATLKVSMAEQLAVLDRLGMQPPFSEELVCAAERRLRHVKVAHAPGTAMKASQPDATIPGTPHTLTRSTCVDSAASADLSAGGASVTATTKKIQVRNGNKIAALLNLRKQNRHQEKPAAAAADAMATGVTDSATTPSTSAPPVKRDGSEDCRTTLDAKENHYVV”, which “soluble on expression in E. coli” value is on record?
Answer: not soluble

Question: Which “soluble on expression in E. coli” value does the source give for “MENKVVEEKQVDKIPLMSPCKMGKFELCHRVVLAPLTRQRSYGYIPQPHAILHYSQRSTNGGLLIGEATVISETGIGYKDVPGIWTKEQVEAWKPIVDAVHAKGGIFFCQIWHVGRVSNKDFQPNGEDPISCTDRGLTPQIMSNGIDIAHFTRPRRLTTDEIPQIVNEFRVAARNAIEAGFDGVEIHGAHGYLIDQFMKDQVNDRSDKYGGSLENRCRFALEIVEAVANEIGSDRVGIRISPFAHYNEAGDTNPTALGLYMVESLNKYDLAYCHVVEPRMKTAWEKIECTESLVPMRKAYKGTFIVAGGYDREDGNRALIEDRADLVAYGRLFISNPDLPKRFELNAPLNKYNRDTFYTSDPIVGYTDYPFLETMT” here?
Answer: soluble

Question: Which “soluble on expression in E. coli” value does the source give for “MGSDKIHHHHHHMAKGSKGFIVSIMGPVVDVKFPEEELPDIYNALEVVNPQTGQKVVLEVEQLIGDGVVRTVAMDSTDGLTKGLEVVDTGAPITAPVGKEVLGRILNVIGEPVDEAGEIKAKERWPIHRPAPELVEQSTEIEILETGIKVIDLLAPFPKGGKIGFFGGAGVGKTVLVMELIRNIAIEHKGFSVFAGVGERTREGNELWLEMQESGVLGNTVLVFGQMNEPPGARFRVALTALTIAEYFRDVEGRDVLLFIDNIFRFVQAGSEVSALLGRMPSAVGYQPTLATDMGELQERITSTRRGSITSVQAIYVPADDITDPAPATTFAHLDATVVLSRRIAELGLYPAVDPLDSSSKILDPAIVGREHYEVARGVQEVLQRYKDLQDIIAILGVEELSPEDKLVVHRARRIQRFLSQPFHVAERFTGRPGRYVPIEETIRGFKEILDGKLDDVPEQAFLMAGNIDEVKERAKEMRS” here?
Answer: not soluble

Question: For “MLVPLYDVMCRALGINGKTAGSAYSGEQQVDVGREVKVQFMTSNNIDMVWEFRSAGDQLVVHPGAVNQMVFYARNPSDKPMTAQAIPSIAPAEAAAYFHKTECFCFTQQVLQPGESIEMPVRFIVDRDLPKDVRHVTLAYTLFDI”, which “soluble on expression in E. coli” value is on record?
Answer: soluble

Question: For “MFDPKKFIDEAVEEIKQQISDRKAIIALSGGVDSSVAAVLTHKAIGDKLTAVFVDTGLMRKGEREEVEKTFRDKLGLNLIVVDAKDRFLNALKGVTDPEEKRKIIGKLFIDVFEEIAEDIKAEVLVQGTIAPDWIETQGKIKSHHNVALPHGMVLEVVEPLRELYKDEVRLLAKELGLPDSIVYRQPFPGPGLAVRVLGEVTEEKLNICREANAIVEEEVKKANLDKDLWQYFAVVLDCKATGVKGDEREYNWIVALRMVKSLDAMTAHVPEIPFDLLKRISKRITSEIPNVARVVFDITDKPPATIEFE”, which “soluble on expression in E. coli” value is on record?
Answer: soluble

Question: For “MKTARLLSSGALALSLLAGSVTAAVSPDEAAKLGSSLTPIGAQKEGNADGSIPAWTGGLAASAGKVDGKGFLSDPFADEKPLFTITAQNVEQYKDKLSDGQLAMFKRYPETYRIPVYKTHRTVALPAEIDEAVKQSALNVQPINDGNGLSNFEKSRYYAFPIPKNGVEVLWNHITRYRGGNLKRTIVQATPQTNGSFTPIRFEESVAFPQNMPDLDQSKAANILTFFKQQVTAPARLAGNVLLVHETLDQVKEPRLAWVYNAGQRRVRRAPQVAYDGPGTAADGLRTSDNFDMFSGAPDRYDWKLVGKREMYIPYNAYKLNDPTLKYSDIIKAGHINQDLTRYELHRVWEVVGTVKPGERHIYAKRHMYIDEDSWQIALVDHYDGRGQLWRVGEGHAQYHYDQKVAGYTLEALYDVIAGRYLALGMNNEEKRGYEFGFKASSADYTPAALRNAGVR”, which “soluble on expression in E. coli” value is on record?
Answer: not soluble

— the DeepSol protein solubility set
